Source: paper doi:10.1101/2023.11.22.568361

Key:
N-protein WT (NWT) = N-protein WT (NWT) (SARS-CoV-2, UniProt P0DTC9 1-419); assay: SV-AUC; […], pH 7.4; […], pH 7.4; […], pH 7.50; temperature not given; conditions: protein: recombinant; tags: N-terminal 6xHis-TEV, cleaved; chain copies: 2; single strand
CTD = CTD (SARS-CoV-2, UniProt P0DTC9 247-364); assay: as above; conditions: protein: recombinant; tags: N-terminal 6xHis-TEV, cleaved; chain copies: 2; single strand

Binder	binding result (N-protein WT (NWT))	binding result (CTD)
TTTTTTTTTTTTTTTTTTTTTTTTTTTTTTTTTTTTTTTT (ssDNA) [T40]	binds	binds
TTTTTTTTTT (ssDNA) [T10]	binds	–
